Like-named read-outs stand apart in the source and are kept apart here.

Experimental findings from publication doi:10.1101/2020.03.16.993188 (bioRxiv, 2020) are described below.

B1: Synechocystis sp. PCC 6803 GCS L-protein (dihydrolipoamide dehydrogenase), recombinant (enzyme)
chain: MSQDFDYDLVIIGAGVGGHGAALHAVKCGLKTAIIEAKDMGGTCVNRGCIPSKALLAASGRVREMSDQDHLQQLGIQINGVTFTREAIAAHANDLVSKIQSDLTNSLTRLKVDTIRGWGKVSGPQEVTVIGDNETRILKAKEIMLCPGSVPFVPPGIEIDHKTVFTSDEAVKLETLPQWIAIIGSGYIGLEFSDVYTALGCEVTMIEALPDLMPGFDPEIAKIAERVLIKSRDIETYTGVFATKIKAGSPVEIELTDAKTKEVIDTLEVDACLVATGRIPATKNLGLETVGVETDRRGFIEVNDQMQVIKDGKPVPHLWAVGDATGKMMLAHAASGQGVVAVENICGRKTEVDYRAIPAAAFTHPEISYVGLTEAQAKELGEKEGFVVSTAKTYFKGNSKALAEKETDGIAKVVYRQDTGELLGAHIIGIHASDLIQEAAQAIADRKSVRELAFHVHAHPTLSEVLDEAYKRAV
B2: Synechocystis sp. PCC 6803 GCS T-protein (aminomethyltransferase), recombinant (enzyme)
chain: MANLFPALRTPLYNLITEQTTKLTTFGGWEMPVQFAGLKQEHQAVREKVGMFDISHMGKFVLTGQKVLAALQSLVPSDLDRLTPGKAQYTVLLNAQGGIIDDIIVYDQGKNPEGQERVTLIVNAATTVKDKQWLLEHLPEEIDFQDLSREKVLIALQGPEALTILQPLVDQNLGELPAFGHLEAEFLREKAFIARTGYTGEDGFEIMVSPEVGKQLWQTFGSKGVTPCGLGARDTLRLEAGMGLYGQDMNDETTPLEAGLGWLVHLDSKGDFIGRAVLTEQKANGVEKRLVGLEMLAKQIARHDYPILHNGEIMGIVTSGTLSPTLQKAIALGYVPTELAKVGQELEVEVRGKTYGIKVVKKLFYRSEQKPR
B3: Synechocystis sp. PCC 6803 GCS H-protein, recombinant, lipoylated holoprotein (natural protein)
chain: MELEHPDDLYYLDSHEYVRFDGETATIGLSAFAVDELGDIVFVELPEEGDKVEFEQSMGAVESVKAASDLYSPVTGTVIEKNSALEDQPELLNQDPYGEEGWLIKVRLDDVEDAKEGLMAAGDYRATLETGD
modifications: lipoyl cofactor on the lipoyl-binding lysine (full lipoylation confirmed by native PAGE); residue number not given
B4: Synechocystis sp. PCC 6803 GCS P-protein (glycine decarboxylase), recombinant (enzyme)
chain: MPNLEPAVVVPTSEAIAVDLTKLEEKLAPADSFLDRHLGPGETEQRQMLQTLGFDTLGDLIDQAVPPAIRFPRSLQLPASQSEYGAIAQLKSIASKNQVFRSYIGMGYYDTITPPVIQRNILENPGWYTAYTPYQAEIAQGRLEALLNFQTMVMDLTGLEIANASLLDEGTAAAEAMALSYGVSKSKANAFFVAQDCHPQTIEVIKTRANPLGIEVIVGDHHTFSFSTSIFGALLQYPATDGAVYDYRSFIDKAHQHQALVTLAADPLSLTLLTPPGELGADIAVGSTQRFGIPLGYGGPHAAYFATKAEYQRKMPGRIVGVSKDAHGNPALRLALQTREQHIRRDKATSNICTAQVLLAVMASMYGVYHGSTGLKNIALRIHQLTVLLAIGLKRLNYSLNNDYFFDTLRVGVGEQSAPAILKAAEGRGINLRPLVPGEVGISLDETVTVQDLLDLWQVFAGKDNLPFTPEELWSEVKTSFPADLTRQSLYLQDAVFNQYHSETELLRYLHQLESKDLALNTSMIPLGSCTMKLNATAEMMPVTWPEFGKIHPFAPAGQTEGYQILFAQLEAWLGEITGFDAISLQPNAGSQGEYAGLQVIRQYHLSRGEEQRNICLIPESAHGTNPASAVMCGMQVVPVKCDGEGNIDVEDLTSKAEKYGDRLAALMVTYPSTHGVFEATIGTICDIVHRFGGEVYMDGANMNAQVGLCRPADFGADVCHLNLHKTFCIPHGGGGPGMGPIGVKSHLQAFLPRTSLNSTAELQAEDQSIGMISAAPYGSASILVISWMYIAMMGPQGLTKATEVAILSANYMAKRLENYYPILFRGNNELVAHECILDLRPLKKQAAIEVEDVAKRLMDFGFHAPTVSWPVLGTMMVEPTESESLGELDRFCDAMIAIYQEAQAITHGEIDPADNPLKNAPHTAQSLICGEWNHPYSQEEAAYPAPWTKQFKFWPAVGRINNTYGDRHLVCSCEGMEAYKEG

Series [1] deals with the molecule itself. Briefly: SEC.
The series “native gel or EMSA” concerns the molecule itself. In words: native gel or EMSA. Background: Mobility shift assays separate free from complexed probe on a gel.
Series [2] concerns the target B4. In words: molecular mass cut-off filtration.
The target in series [3] is B1. In words: molecular mass cut-off filtration.
In series [4] the target is B2. Briefly: SEC. For orientation: Size exclusion chromatography separates by hydrodynamic size, large species first.
Series [5] concerns the molecule itself. Briefly: SEC. The source holds these as a separate data set.
The target in series [6] is B2. In words: SEC. This is another data set of the same source.

The stoichiometry N is a count of units in the complex or per binding partner. B1: the “stoichiometry N” value in the series “SEC [1]” is 2.

Regarding B2, the binding result (in “native gel or EMSA”; in series [2]) was “binds” in each case. In addition, the “stoichiometry N” value in series [3] was around 3 T per L2 dimer.

As to B3, the “stoichiometry N” value was around 2 H per T in series [4]; 2 in “SEC [5]”; around 4 H per T in series [6]; around 4 in “SEC [1]”; around 26 H per L2 dimer in series [3]. Moreover, the binding result in series [2] is listed as “binds”.

Consider B4, for which the results for the “stoichiometry N” value (in “SEC [1]”; in series [3]) were 2 and around 0.25 P2 dimer per L2 dimer, respectively.
